For orientation: Ki means the equilibrium dissociation constant of an inhibitor or competing ligand from its target. A high value points to weaker binding.

The source of these data is publication PMC3677877 (PLoS ONE, 2013).

For one experiment, the target named is papain (UniProt P00784).
The target in experiment [1] is rKgp: mature recombinant Kgp catalytic domain with the ABM1 motif (Gly681-Ala710) deleted (Porphyromonas gingivalis W50).
A further experiment concerns the target caspase 3 (UniProt P42574).
Experiment [2] addresses T1, mature RgpB from P. gingivalis HG66 (Porphyromonas gingivalis HG66, UniProt P95493 230-736).
T1 chain: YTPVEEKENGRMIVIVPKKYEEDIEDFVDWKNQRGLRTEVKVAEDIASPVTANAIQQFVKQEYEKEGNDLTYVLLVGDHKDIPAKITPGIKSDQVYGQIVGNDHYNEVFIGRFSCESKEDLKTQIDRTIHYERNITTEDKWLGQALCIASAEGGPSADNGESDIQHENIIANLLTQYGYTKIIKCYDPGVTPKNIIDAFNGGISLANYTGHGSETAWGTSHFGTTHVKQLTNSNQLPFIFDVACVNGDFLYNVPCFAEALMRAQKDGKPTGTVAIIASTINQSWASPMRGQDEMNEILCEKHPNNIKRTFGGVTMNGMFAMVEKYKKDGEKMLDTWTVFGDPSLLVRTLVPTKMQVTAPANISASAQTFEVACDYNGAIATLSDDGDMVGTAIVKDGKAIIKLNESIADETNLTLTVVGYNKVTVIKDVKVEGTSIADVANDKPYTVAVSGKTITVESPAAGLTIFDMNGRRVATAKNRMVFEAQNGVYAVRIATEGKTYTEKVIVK
Briefly: enzyme inhibition kinetics. Conditions: both partners purified.

Chain of papain (P00784 134-345): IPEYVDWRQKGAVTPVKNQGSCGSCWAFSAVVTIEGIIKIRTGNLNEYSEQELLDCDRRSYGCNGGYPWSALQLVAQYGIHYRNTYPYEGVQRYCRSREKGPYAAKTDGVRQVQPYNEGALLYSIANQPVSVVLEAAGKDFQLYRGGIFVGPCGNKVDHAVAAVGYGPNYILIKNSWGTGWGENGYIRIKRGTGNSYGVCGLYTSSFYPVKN
Chain of caspase 3 (P42574 whole entry): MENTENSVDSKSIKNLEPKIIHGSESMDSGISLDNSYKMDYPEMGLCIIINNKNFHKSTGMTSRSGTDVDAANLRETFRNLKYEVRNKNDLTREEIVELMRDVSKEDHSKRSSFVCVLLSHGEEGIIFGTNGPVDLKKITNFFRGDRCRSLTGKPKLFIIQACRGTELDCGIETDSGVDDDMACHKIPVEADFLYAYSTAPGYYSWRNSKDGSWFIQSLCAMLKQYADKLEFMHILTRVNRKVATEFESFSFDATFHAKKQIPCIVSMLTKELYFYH

As for “recombinant RgpB propeptide (thrombin-cleaved) (from UniProt P95493 25-222) (domain or fragment)”, the % proteolytic activity of papain (2.75 mg/L) with RgpB-PP at 100 mg/L, substrate BapNA (% proteolytic activity) with papain was found to be 103. The % proteolytic activity of Kgp (0.0075 mg/mL) with RgpB-PP at 50 mg/L, substrate GPKNA (% proteolytic activity) in experiment [1] worked out at 118. For the same molecule, the % proteolytic activity of caspase 3 (60 Units) with RgpB-PP at 100 mg/L, substrate Ac-DEVD-pNa (200 µM) (% proteolytic activity) in the experiment with caspase 3 is 133.

B1: recombinant RgpB propeptide (thrombin-cleaved) (domain or fragment)
chain: QPAERGRNPQVRLLSAEQSMSKVQFRMDNLQFTGVQTSKGVAQVPTFTEGVNISEKGTPILPILSRSLAVSETRAMKVEVVSSKFIEKKDVLIAPSKGVISRAENPDQIPYVYGQSYNEDKFFPGEIATLSDPFILRDVRGQVVNFAPLQYNPVTKTLRIYTEIVVAVSETAEAGQNTISLVKNSTFTGFEDIYKSVFMNYEATR
modifications: Text prints 25-222, but the reverse primer encodes FMNYEATR-stop (end at 229), and 209 aa = GSHM vector remnant + 205 residues (25-229). The GSHM remnant left after thrombin cleavage is omitted. …
B1 displayed an inhibition constant Ki in experiment [2] of 12 nM.
